Assay results from patent US20240294622A1 (SUZHOU TRANSCENTA THERAPEUTICS, published 2024).
Changes are numbered by the printed parent chain.

T1: HGREM1-His (ACRO) (human, UniProt O60565 25-184)
T1 construct: Lys25-Asp184 of NP_037504 with C-terminal polyhistidine tag (ACRO GR1-H52H3); they are put here; also called hGREM1 (ACRO); human gremlin (ACRO)
T1 sequence: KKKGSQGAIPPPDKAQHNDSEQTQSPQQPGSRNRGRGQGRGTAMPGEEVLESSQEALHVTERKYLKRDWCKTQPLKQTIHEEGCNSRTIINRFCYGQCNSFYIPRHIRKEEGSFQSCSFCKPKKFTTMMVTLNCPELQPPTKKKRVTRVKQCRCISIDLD

T2: XM5-Fc (human (hGREM1 with residues 123-143 …))
T2 construct: also called gremlin 1-DAN fusion protein
T2 chain: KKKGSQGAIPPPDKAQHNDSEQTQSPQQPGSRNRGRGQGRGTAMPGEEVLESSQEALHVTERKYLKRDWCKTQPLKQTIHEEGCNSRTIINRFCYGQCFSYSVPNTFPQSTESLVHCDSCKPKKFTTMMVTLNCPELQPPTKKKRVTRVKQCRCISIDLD

T3: Mouse Gremlin-His (R&D) (mouse, UniProt O70326 25-184)
T3 construct: Lys25-Asp184 with 10xHis, R&D 956-GR; also called mouse gremlin (R&D); mGREM1
T3 sequence: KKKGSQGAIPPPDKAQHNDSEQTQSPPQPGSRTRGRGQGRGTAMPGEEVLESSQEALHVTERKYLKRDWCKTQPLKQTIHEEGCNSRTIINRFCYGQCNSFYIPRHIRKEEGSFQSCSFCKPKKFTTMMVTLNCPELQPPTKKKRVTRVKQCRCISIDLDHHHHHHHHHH

T4: hGREM1 (source and construct not stated) (human, UniProt O60565 25-184)
T4 construct: also called Gremlin; gremlin
T4 sequence: T1 sequence

B1: 67G11 (antibody, V domains shown)
VH: QVQLQQSGAELARPGASVKLSCKASGYTFTSYGIGWVKQRTGQGLEWIGEIYPRSGNTYNNEKFKGKATLTADKSSRTVYMELRSLISEDSAVYFCAREGYSNNYYAMDYWGQGTSVTVFS
VL: DVLMTQTPLSLPVSLGDQASISCRSSQSLVHSNGNTYLEWYLQKPGQSPKLLIYKVSNRFSGVPDRLSGSGSGTDFTLKISRVEAEDLGVYYCFQGSHVPFTFGSGTKLEIK
notes: mouse hybridoma antibody; also called hybridoma 67G11
B2: 56C11-C (chimeric antibody of 56C11) (antibody, human IgG1, V domains shown)
VH: EVQLQQSGPELVKPGASVKISCKASGYTFTDFYMNWVKQSHGKSLEWIGDINPNNGGTSYNQKFKGKATLTVDKSSSTAYMELRSLTSEDSAVYYCARDPIYYDYDEVAYWGQGTLVTVSA
VL: B1 VL with L3V, E39H, L67F, Y92F, F94S, G96S, S97T, F101L, S105A, I111L
notes: also called 56C11-chi
B3: 42B9 (antibody, V domains shown)
VH: B1 VH
VL: B1 VL with R24I, Q47L, K79R
notes: mouse hybridoma antibody; also called hybridoma 42B9

Columns and labels:
HGREM1-His (ACRO) [1] = biological target: T1, HGREM1-His (ACRO); assay: ELISA, coated hGREM1 (ACRO)
Experimental: (§1) Clear polystyrene plates (BEAVER) were coated with 100 μl/well of a […] hGREM1 (ACRO) and mouse gremlin (R&D) in high pH coating buffer overnight at 4° C. Then the plates were washed once on an automatic plate washer using PBS+0.1% Tween 20 (Sigma). 100 μl of block solution consisting of PBS+1% BSA+1% normal goat serum+0.5% Tween 20 (Sigma) was added to each well and incubated at room temperature for 2 hours. Then 100 μl of antibodies in antibody dilution buffer containing PBS+1% BSA+1% normal goat serum+0.01% Tween 20 starting from 2 μg/ml and then serial dilutions were added to each well of the plate and incubated for 1 hours at room temperature. Afterward the plates were washed three times with 200 μl of PBS+0.1% Tween20 followed by adding 100 μl/well 1:10000 Goat anti mouse IgG-HRP (abcam), and incubate for 1 hour at room temperature. They were then washed 3× with PBS+0.1% Tween20. Finally, 100 µl/well of TMB (Pierce) was added to each well and after several minutes add 50 μl of stop solution to each well. The plates were read on a Multiscan FC microplate reader (Thermo Scientific) at […].

HGREM1-His (ACRO) [2] = biological target: T1, HGREM1-His (ACRO); assay: blocking ELISA, Human Gremlin-1 binding to BMP7; column OD450
Experimental: (§2) In addition, the ability of serial dilutions of antibodies provided herein to block Gremlin binding to human BMP2/4/7 was also examined via ELISA. Plates were coated with recombinant human BMP2/4/7 (0.5 μg/ml) overnight and then serial dilutions of antibodies were incubated with 1 μg/ml of human Gremlin-his modified for 1 h at RT before this complex was added to coated plates and allowed to incubate for an additional hour at RT. The plates were then washed and added with anti-his HRP (GenScript). Plates were then developed with a TMB solution and stopped by adding stop solution. The plates were read on a plate reader at 450 nm. […] The chimeric anti-gremlin 1 antibodies (69H5-chi) and chimeric anti-gremlin 1 antibodies (22F1-chi) also can inhibit the binding of gremlin to BMP2 and BMP4 (see, FIG. 3E and FIG. 3F). The chimeric anti-gremlin 1 antibodies (56C11-chi) can inhibit the binding of gremlin to BMP2 (see, FIG. 3E).

HGREM1-His (ACRO) [3] = biological target: T1, HGREM1-His (ACRO); assay: blocking ELISA, Human Gremlin-1 binding to BMP4; column Percentage
Experimental: as §2

HGREM1-His (ACRO) [4] = biological target: T1, HGREM1-His (ACRO); assay: blocking ELISA, Human Gremlin-1 binding to BMP4; column OD450
Experimental: as §2

XM5-Fc = biological target: T2, XM5-Fc; assay: ELISA on coated XM5-Fc (column XM5)
Experimental: (§3) Binding affinities to hGREM1 and XM5 were also compared. Briefly, XM5-Fc or Gremlin-his […] was coated. 100 μl of block solution consisting of PBS+1% BSA+1% normal goat serum+0.5% Tween 20 (Sigma) was added to each well and incubated at room temperature for 2 hours. 4-fold serial antibody dilution from 2 μg/ml were added. Afterward the plates were washed three times with 200 ul of PBS+0.1% Tween20 followed by adding 100 μl/well 1:10000 Goat anti mouse IgG-HRP (abeam), and incubate for 1 hour at room temperature. They were then washed 3× with PBS+0.1% Tween20. Finally, 100 μl/well of TMB (InnoReagents) was added to each well and after 2 minutes add 50 ul of stop solution to each well. The plates were read on a Multiscan FC microplate reader (Thermo Scientific) at […]. The EC50 values were show in table below.

HGREM1-His (ACRO) [5] = biological target: T1, HGREM1-His (ACRO); assay: blocking ELISA, Human Gremlin-1 binding to BMP7; column Percentage
Experimental: as §2

HGREM1-His (ACRO) [6] = biological target: T1, HGREM1-His (ACRO); assay: blocking ELISA, Human Gremlin-1 binding to BMP2; column Percentage
Experimental: as §2

HGREM1-His (ACRO) [7] = biological target: T1, HGREM1-His (ACRO); assay: ELISA on coated Gremlin-his (column Gremlin)
Experimental: as §3

HGREM1-His (ACRO) [8] = biological target: T1, HGREM1-His (ACRO); assay: blocking ELISA, Human Gremlin-1 binding to BMP2; column OD450
Experimental: as §2

HGREM1-His (ACRO) [9] = biological target: T1, HGREM1-His (ACRO); assay: competition ELISA, Gremlin-his binding to coated BMP7
Mouse Gremlin-His (R&D) = biological target: T3, Mouse Gremlin-His (R&D); assay: ELISA, coated mouse gremlin (R&D)
Experimental: as §1

HGREM1-His (ACRO) [10] = biological target: T1, HGREM1-His (ACRO); assay: blocking ELISA, Human Gremlin-1 binding to FGFR1
Experimental: Next, 0.25 μg/ml of gremlin was selected to test the blocking activity. The ability of antibodies to block Gremlin binding to human FGFR1-Fc was examined via ELISA. Plates were coated with recombinant FGFR1-Fc (2 μg/ml) overnight and then serial dilutions of antibodies were incubated with 0.25 μg/ml of human Gremlin-his modified for 1 h at RT before this complex was added to coated plates and allowed to incubate for an additional hour at RT. The plates were then washed and added with anti-his HRP (GenScript). Plates were then developed with a TMB solution and stopped by adding stop solution. The plates were read on a plate reader at 450 nm. […] Humanized anti-GREM1 antibodies provided herein (e.g., Hu14E3, Hu22F1) are expected to show the similar technical effect as their chimeric counterparts in blocking the binding of hGREM1 to FGFR1.

[11] = biological target: T4, hGREM1 (source and construct not stated); assay: ELISA on hGREM1

| EC50 (HGREM1-His (ACRO) [1]) | IC50 (HGREM1-His (ACRO) [2]) | IC50 (HGREM1-His (ACRO) [3]) | IC50 (HGREM1-His (ACRO) [4]) | EC50 (XM5-Fc) | IC50 (HGREM1-His (ACRO) [5]) | IC50 (HGREM1-His (ACRO) [6]) | EC50 (HGREM1-His (ACRO) [7]) | IC50 (HGREM1-His (ACRO) [8]) | maximal blocking percentage (HGREM1-His (ACRO) [9]) | EC50 (Mouse Gremlin-His (R&D)) | IC50 (HGREM1-His (ACRO) [10]) | EC50 [11] | Binder |
| --- | --- | --- | --- | --- | --- | --- | --- | --- | --- | --- | --- | --- | --- |
| 0.00784 µg/mL | 0.848 µg/mL | 0.367 µg/mL | 0.367 µg/mL | 0.00665 µg/mL | 0.848 µg/mL | 0.548 µg/mL | 0.0126 µg/mL | 0.547 µg/mL | ≥ 50% | 0.00771 µg/mL | 2.41 µg/mL | – | B1 |
| – | – | – | – | – | – | – | – | – | – | – | – | 0.00489 µg/mL | B2 |
| 0.00806 µg/mL | 0.916 µg/mL | 0.396 µg/mL | 0.397 µg/mL | 0.00712 µg/mL | 0.928 µg/mL | 0.752 µg/mL | 0.0134 µg/mL | 0.752 µg/mL | ≥ 50% | 0.00851 µg/mL | 2.79 µg/mL | – | B3 |
